Reference: US20240197828A1, “Chimeric molecule to treat sepsis and other inflammatory conditions” (THE FEINSTEIN INSTITUTES FOR MEDICAL RESEARCH, priority 2022, published 2024)

Test system: RAW264.7 macrophages
Assay: Intracellular uptake of FITC-rmCIRP by macrophages (flow cytometry, confocal microscopy)
Format: cell-based, mouse
Description: FIG. 3. Effects of MOP peptides MOP-3, MOP-8 and MOP-14 on eCIRP. Flow cytometry experiment whereby RAW264.7 macrophages were treated for 1 hour according to respective group: PBS (volume-equivalent), FITC-rmCIRP (1 μg/mL), or a mixture of FITC-rmCIRP (1 μg/mL) with each respective peptide (10 μg/mL) after co-incubating for 30 minutes. Intracellular FITC-rmCIRP was analyzed by flow cytometry. Median fluorescence intensity (MFI) reported as percentage relative to PBS-treated RAW264.7 cells. Data from two independent experiments are expressed as mean±SEM and compared by one-way ANOVA and SNK test. *p<0.05 vs. PBS, #p<0.05 vs. eCIRP.
Computational modeling was used to determine the likely domain of MFG-E8's binding to eCIRP. The known amino acid (AA) sequence of this domain was used to develop and test potential therapeutic peptides. An MFG-E8 derived oligopeptide, MOP3, was developed based on 15 AA from MFG-E8 discoidin 2 domain (mimicking MFG-E8's C-terminal) and tagged with the 3 AA, RGD, (mimicking MFG-E8's binding capacity for the integrin receptor at the N-terminal). Binding of MOP3 to CIRP was quantified using Surface Plasmon Resonance (SPR) analysis. Macrophages (RAW264.7 cells) were treated with FITC-recombinant mouse (rm)-CIRP or co-incubated MOP3 and FITC-rmCIRP with and without a. Br-integrin Ab. After 1 h, cells were fixed and analyzed for intracellular FITC-rmCIRP by flow cytometry. Macrophages were stimulated with rmCIRP or co-incubated mixture of MOP3 and rmCIRP. After 4 h, cell culture supernatants were analyzed for inflammatory cytokine, TNFα.
Mouse macrophage cell line, RAW264.7 cells were obtained from American Type Culture Collection (ATCC) and cultured in DMEM media with 10% FBS, 1% penicillin and streptomycin, and 1% glutamine. Cells were kept in 37° C. incubator under humidified conditions containing 5% CO2.
rmCIRP was labeled using a FITC Conjugation Kit (Abcam, ab188285), and rmMFG-E8 was labeled using Alexa Fluor Conjugation Kit (Abcam, ab269821), both according to respective manufacturer's instructions.
In order to visualize cellular uptake, we initially utilized TRITC-BSA as an internal probe, as BSA is taken up into cells primarily by endocytosis and retained intracellularly after fixation (27, 28). For further visualization of intracellular localization, we utilized LAMP1 primary antibody (as it is distributed among endolysosomal organelles and serves as a marker for lysosomal compartments) (29), and utilized lysotracker in live cell experiments (as it allows for imaging of dynamics of lysosome vesicle movements) (30). […] Images were quantified and analyzed using Image J, FIJI.(31) Flow cytometry. […]

B1: milk fat globule-epidermal growth factor—factor VIII (protein, listed as Mus musculus)
chain: MQVSRVLAALCGMLLCASGLFAASGDFCDSSLCLNGGTCLTGQDNDIYCLCPEGFTGLVCNETERGPCSPNPCYNDAKCLVTLDTQRGDIFTEYICQCPVGYSGIHCETETNYYNLDGEYMFTTAVPNTAVPTPAPTPDLSNNLASRCSTQLGMEGGAIADSQISASSVYMGFMGLQRWGPELARLYRTGIVNAWTASNYDSKPWIQVNLLRKMRVSGVMTQGASRAGRAEYLKTFKVAYSLDGRKFEFIQDESGGDKEFLGNLDNNSLKVNMFNPTLEAQYIKLYPVSCHRGCTLRFELLGCELHGCSEPLGLKNNTIPDSQMSASSSYKTWNLRAFGWYPHLGRLDNQGKINAWTAQSNSAKEWLQVDLGTQRQVTGIITQGARDFGHIQYVASYKVAHSDDGVQWTVYEEQGSSKVFQGNLDNNSHKKNIFEKPFMARYVRVLPVSWHNRITLRLELLGC
RAW264.7, 4 hours, vs FITC-eCIRP alone
  FITC-eCIRP uptake (confocal fluorescence microscopy): marked increase of FITC-eCIRP uptake
RAW264.7, FITC-rmCIRP 1 μg/mL co-incubated with test substance (peptide 10 μg/mL), 1 hour, vs FITC-rmCIRP alone
  intracellular FITC-rmCIRP uptake (flow cytometry): enhanced internalization of FITC-eCIRP
RAW264.7, vs IgG isotype control
  intracellular FITC-eCIRP with αvβ3-integrin neutralizing antibody (confocal fluorescence microscopy): remarkably reduced
RAW264.7, αvβ3-integrin antibody 0.5 μg/mL
  intracellular FITC-rmCIRP uptake with αvβ3-integrin blocking antibody (flow cytometry): significantly reduced
